Test results: PMC8808070 (The Journal of Biological Chemistry, 2021)

What was measured:
[1] = molecular target: T1, YjgCD (ForCE1) (Bacillus subtilis, UniProt O34720); assay: copurification, HPLC-ECD-MS of lipid extracts; format: binding; settings: copurified without detergent, minor species
T1 construct: gene forC; full-length YjgC with N-terminal 6His tag and TEV site, copurified with untagged YjgD; homologous expression in B. subtilis 168; heterodimer 132 kDa; YjgC ~110 kDa, YjgD 21 kDa
T1 sequence (O34720 1-985): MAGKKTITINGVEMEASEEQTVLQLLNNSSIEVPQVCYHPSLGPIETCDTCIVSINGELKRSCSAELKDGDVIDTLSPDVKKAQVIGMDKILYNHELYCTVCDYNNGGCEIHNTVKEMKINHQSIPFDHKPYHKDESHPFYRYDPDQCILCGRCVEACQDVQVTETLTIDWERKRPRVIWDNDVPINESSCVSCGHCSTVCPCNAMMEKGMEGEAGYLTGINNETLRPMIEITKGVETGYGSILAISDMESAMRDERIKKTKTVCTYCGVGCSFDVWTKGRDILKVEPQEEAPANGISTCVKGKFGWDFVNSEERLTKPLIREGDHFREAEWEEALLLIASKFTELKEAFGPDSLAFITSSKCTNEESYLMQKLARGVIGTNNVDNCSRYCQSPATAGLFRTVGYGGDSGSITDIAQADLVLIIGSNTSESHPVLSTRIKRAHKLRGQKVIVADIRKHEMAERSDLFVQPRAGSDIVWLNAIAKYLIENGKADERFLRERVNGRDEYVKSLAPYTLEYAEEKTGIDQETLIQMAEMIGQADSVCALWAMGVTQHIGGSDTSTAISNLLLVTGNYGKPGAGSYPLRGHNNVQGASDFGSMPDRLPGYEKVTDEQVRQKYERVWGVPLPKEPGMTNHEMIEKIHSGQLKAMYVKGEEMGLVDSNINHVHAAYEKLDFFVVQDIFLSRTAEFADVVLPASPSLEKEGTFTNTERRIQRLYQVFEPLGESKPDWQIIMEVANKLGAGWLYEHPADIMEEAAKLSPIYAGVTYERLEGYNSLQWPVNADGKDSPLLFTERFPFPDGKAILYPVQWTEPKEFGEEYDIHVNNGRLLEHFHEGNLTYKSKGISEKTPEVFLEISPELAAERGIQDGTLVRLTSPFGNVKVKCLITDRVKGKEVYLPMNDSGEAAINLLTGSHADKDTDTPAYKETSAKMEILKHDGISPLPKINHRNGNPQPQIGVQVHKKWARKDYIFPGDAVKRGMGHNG
T1 sequence (O34681 1-186 partner): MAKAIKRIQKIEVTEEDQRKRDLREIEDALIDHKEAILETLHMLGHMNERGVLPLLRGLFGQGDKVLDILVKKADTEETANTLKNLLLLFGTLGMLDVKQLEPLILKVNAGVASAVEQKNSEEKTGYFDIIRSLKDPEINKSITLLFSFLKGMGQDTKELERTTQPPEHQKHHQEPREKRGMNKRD

[2] = molecular target: T2, YrhED (ForCE2) (Bacillus subtilis, UniProt Q795Y4); assay: copurification, HPLC-ECD-MS of lipid extracts; EPR of bound menasemiquinone radical; format: binding; settings: copurified without detergent; menasemiquinone radical seen by EPR
T2 construct: gene fdhE; full-length YrhE with N-terminal 6His tag and TEV site, copurified with untagged YrhD; homologous expression in B. subtilis 168; heterodimer 125 kDa; YrhE ~110 kDa, YrhD 17 kDa
T2 sequence (Q795Y4 1-980): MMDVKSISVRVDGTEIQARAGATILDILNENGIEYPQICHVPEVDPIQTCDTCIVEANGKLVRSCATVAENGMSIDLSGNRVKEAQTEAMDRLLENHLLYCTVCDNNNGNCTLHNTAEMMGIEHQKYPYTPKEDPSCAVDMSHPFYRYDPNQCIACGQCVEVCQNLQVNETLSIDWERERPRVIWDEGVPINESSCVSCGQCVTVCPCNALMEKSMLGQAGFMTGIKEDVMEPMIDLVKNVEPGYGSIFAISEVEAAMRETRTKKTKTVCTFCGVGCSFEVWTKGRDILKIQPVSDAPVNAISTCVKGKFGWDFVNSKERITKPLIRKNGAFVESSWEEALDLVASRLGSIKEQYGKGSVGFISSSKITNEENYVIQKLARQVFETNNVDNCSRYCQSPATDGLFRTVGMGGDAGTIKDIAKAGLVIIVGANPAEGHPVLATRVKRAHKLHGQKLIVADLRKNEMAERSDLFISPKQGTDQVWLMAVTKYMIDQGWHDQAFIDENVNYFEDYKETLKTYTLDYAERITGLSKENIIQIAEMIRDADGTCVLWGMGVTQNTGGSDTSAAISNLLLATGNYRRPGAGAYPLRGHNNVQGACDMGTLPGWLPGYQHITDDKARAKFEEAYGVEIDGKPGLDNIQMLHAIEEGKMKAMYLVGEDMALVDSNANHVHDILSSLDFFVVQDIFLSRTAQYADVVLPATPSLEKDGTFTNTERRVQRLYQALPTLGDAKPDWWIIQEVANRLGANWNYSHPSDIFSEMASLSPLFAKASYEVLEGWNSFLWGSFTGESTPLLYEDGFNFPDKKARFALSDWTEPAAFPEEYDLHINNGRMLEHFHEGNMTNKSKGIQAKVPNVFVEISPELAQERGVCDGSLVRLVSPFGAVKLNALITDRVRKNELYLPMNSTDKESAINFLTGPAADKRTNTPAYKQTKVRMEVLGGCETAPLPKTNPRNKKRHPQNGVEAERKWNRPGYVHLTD
T2 sequence (O05396 1-160 partner): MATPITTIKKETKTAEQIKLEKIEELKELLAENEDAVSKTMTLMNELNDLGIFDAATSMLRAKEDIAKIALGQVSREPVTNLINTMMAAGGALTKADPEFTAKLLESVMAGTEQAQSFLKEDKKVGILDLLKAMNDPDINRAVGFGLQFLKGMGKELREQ

[3] = molecular target: T1, YjgCD (ForCE1); assay: as above; format: binding; settings: copurified without detergent; neutral menasemiquinone form seen by EPR at pH 6.0 and 7.5
[4] = substrate: O=CO; assay: purified protein; settings: anaerobic
[5] = substrate: CC1=CC(=O)c2ccccc2C1=O; assay: purified protein; format: biochemical, Bacillus subtilis; settings: 50 mM sodium formate as electron donor, 25 mM CHES pH 9, room temperature, anaerobic
[6] = benzyl viologen as electron acceptor (1.75 mM), 25 mM CHES pH 8.6, room temperature, pH 8.6
[7] = benzyl viologen as electron acceptor (17.5 mM), 25 mM CHES pH 10, room temperature, pH 10.0

CC(C)=CCC/C(C)=C/CC/C(C)=C/CC/C(C)=C/CC/C(C)=C/CC/C(C)=C/CC/C(C)=C/CC/C(C)=C/CC1=C(C)C(=O)c2ccccc2C1=O [MK-8] was tested, and the “copurification, HPLC-ECD-MS of lipid extracts” value [1] was “ForCE1 is also able to bind MK-8 at a low but significant ratio”.

In the case of CC(C)=CCC/C(C)=C/CC/C(C)=C/CC/C(C)=C/CC/C(C)=C/CC/C(C)=C/CC/C(C)=C/CC1=C(C)C(=O)c2ccccc2C1=O [MK-7], the ForCE2-MK-7 ratio [2] is reported as 1:1.63 and the ForCE1-MK-7 ratio [3] is reported as 1:0.87.

B1: YrhED (ForCE2) (Bacillus subtilis subsp. subtilis str. 168) (protein)
chain: T2 sequence (Q795Y4 1-980)
notes: full-length YrhE with N-terminal 6His tag and TEV site, copurified with untagged YrhD; homologous expression in B. subtilis 168; heterodimer 125 kDa; YrhE ~110 kDa, YrhD 17 kDa
B1 was tested, and the Km [4, 6] was 1100 ± 100 µM, the Vmax [4, 6] was 26.6 µmol/min and the kcat [4, 6] was 55.8 s⁻¹. It also gave a Km [5] of 23 ± 5 µM, a Vmax [5] of 12.6 µmol/min and a kcat [5] of 26.4 ± 1.8 s⁻¹.

B2: YjgCD (ForCE1) (Bacillus subtilis subsp. subtilis str. 168) (protein)
chain: T1 sequence (O34720 1-985)
notes: full-length YjgC with N-terminal 6His tag and TEV site, copurified with untagged YjgD; homologous expression in B. subtilis 168; heterodimer 132 kDa; YjgC ~110 kDa, YjgD 21 kDa
Work on B2 yielded a Km [4, 7] of 5100 ± 900 µM, a Vmax [4, 7] of 43.7 µmol/min and a kcat [4, 7] of 96.1 s⁻¹. For the same molecule, the Km [5] was 25 ± 3 µM, the Vmax [5] was 7.5 µmol/min and the kcat [5] was 16.5 ± 0.6 s⁻¹.
